Experimental findings from IntAct's records for PubMed 9278513 are described below.

B1: Response regulator Rcp1 (Synechocystis sp. (strain PCC 6803 / Kazusa)), Q55169 (parent)
chain: MSDESNPPKVILLVEDSKADSRLVQEVLKTSTIDHELIILRDGLAAMAFLQQQGEYENSPRPNLILLDLNLPKKDGREVLAEIKQNPDLKRIPVVVLTTSHNEDDVIASYELHVNCYLTKSRNLKDLFKMVQGIESFWLETVTLPAA
B2: Phytochrome-like protein Cph1 (Synechocystis sp. (strain PCC 6803 / Kazusa)), Q55168 (parent)
chain: MATTVQLSDQSLRQLETLAIHTAHLIQPHGLVVVLQEPDLTISQISANCTGILGRSPEDLLGRTLGEVFDSFQIDPIQSRLTAGQISSLNPSKLWARVMGDDFVIFDGVFHRNSDGLLVCELEPAYTSDNLPFLGFYHMANAALNRLRQQANLRDFYDVIVEEVRRMTGFDRVMLYRFDENNHGDVIAEDKRDDMEPYLGLHYPESDIPQPARRLFIHNPIRVIPDVYGVAVPLTPAVNPSTNRAVDLTESILRSAYHCHLTYLKNMGVGASLTISLIKDGHLWGLIACHHQTPKVIPFELRKACEFFGRVVFSNISAQEDTETFDYRVQLAEHEAVLLDKMTTAADFVEGLTNHPDRLLGLTGSQGAAICFGEKLILVGETPDEKAVQYLLQWLENREVQDVFFTSSLSQIYPDAVNFKSVASGLLAIPIARHNFLLWFRPEVLQTVNWGGDPNHAYEATQEDGKIELHPRQSFDLWKEIVRLQSLPWQSVEIQSALALKKAIVNLILRQAEELAQLARNLERSNADLKKFAYIASHDLQEPLNQVSNYVQLLEMRYSEALDEDAKDFIDFAVTGVSLMQTLIDDILTYAKVDTQYAQLTFTDVQEVVDKALANLKQRIEESGAEIEVGSMPAVMADQIQLMQVFQNLIANGIKFAGDKSPKIKIWGDRQEDAWVFAVQDNGIGIDPQFFERIFVIFQRLHTRDEYKGTGMGLAICKKIIEGHQGQIWLESNPGEGSTFYFSIPIGN
partner: B1 chain

One assay covers variants of B1. The conditions noted are these: with phy1_syny3 cph1, Q55168.
Regarding D68A, the “effect of a mutation on the interaction” value was “disrupting interaction”.

Variants of B2 are the subject of another assay. The following applies: with rcp1_syny3 rcp1, Q55169.
For the variant H538K, the “effect of a mutation on the interaction” value is reported as “disrupting interaction”.
